Data reported in PMC11201810 (Protein Science : A Publication of the Protein Society, 2024).
Substitutions are numbered along the chain they refer to. Numbers in names are those of the source. Where “and” joins values, the source holds several entries; their conditions need not be identical. Identical values can stand only once. Like-named read-outs stand apart in the source and are kept apart here.

B1: human βB2-crystallin W151F (natural protein, UniProt P43320 1-205, looked up)
chain: MASDHQTQAGKPQSLNPKIIIFEQENFQGHSHELNGPCPNLKETGVEKAGSVLVQAGPWVGYEQANCKGEQFVFEKGEYPRWDSWTSSRRTDSLSSLRPIKVDSQEHKIILYENPNFTGKKMEIIDDDVPSFHAHGYQEKVSSVRVQSGTFVGYQYPGYRGLQYLLEKGDYKDSSDFGAPHPQVQSVRRIRDMQWHQRGAFHPSN
B2: human βB2-crystallin W59F (natural protein, UniProt P43320 1-205, looked up)
chain: B1 chain with W59F, F151W
B3: human βB2-crystallin W82F (natural protein, UniProt P43320 1-205, looked up)
chain: B1 chain with W82F, F151W
B4: human βB2-crystallin W85F (natural protein, UniProt P43320 1-205, looked up)
chain: B1 chain with W85F, F151W

Experiments:
[1] = target: human βB2-crystallin W196F (human) (UniProt P43320); assay: AUC
[2] = target: human βB2-crystallin W196F (human) (UniProt P43320); assay: SEC
AUC = target: the molecule itself; assay: AUC
SEC [3] = target: the molecule itself; assay: SEC
SEC [4] = target: the molecule itself; assay: SEC; remark: listed apart in the source

Molecule	% dimer [1] [%]	% tetramer [1] [%]	stoichiometry N [2]	% dimer (AUC) [%]	% tetramer (AUC) [%]	stoichiometry N (SEC [3])	stoichiometry N (SEC [4])
human βB2-crystallin W196F (from UniProt P43320 1-205) (natural protein)	83.4	12.7	4 and 2				
B1				92.2 ± 0.5	2.7 ± 0.1	2	
B2				48.7 ± 0.3	36.1 ± 0.4	2	4
B3				75.5 ± 0.3	22.3 ± 0.2	2 and 4	
B4				79.7 ± 0.6	11.5 ± 0.6	2 and 4	
